Experimental data taken from PMC8321558.

Assays:
[1] = molecular target: NirD (purified, untagged) (Escherichia coli) (UniProt P0A9I8); assay: BLI; biotinylated NirD or NirD^E50K on streptavidin biosensors, RelA^N-terminal as analyte (up to 30 µM); BLItz, 25°C; 50 mM Tris-HCl pH 8.0, 500 mM NaCl, 500 mM KCl, 2 mM β-mercaptoethanol, 2% glycerol; KD from steady-state responses, one site model
[2] = molecular target: T1, RelA^N-terminal (purified RelA catalytic domains) (Escherichia coli)
T1 sequence (P0AG20 whole entry, looked up): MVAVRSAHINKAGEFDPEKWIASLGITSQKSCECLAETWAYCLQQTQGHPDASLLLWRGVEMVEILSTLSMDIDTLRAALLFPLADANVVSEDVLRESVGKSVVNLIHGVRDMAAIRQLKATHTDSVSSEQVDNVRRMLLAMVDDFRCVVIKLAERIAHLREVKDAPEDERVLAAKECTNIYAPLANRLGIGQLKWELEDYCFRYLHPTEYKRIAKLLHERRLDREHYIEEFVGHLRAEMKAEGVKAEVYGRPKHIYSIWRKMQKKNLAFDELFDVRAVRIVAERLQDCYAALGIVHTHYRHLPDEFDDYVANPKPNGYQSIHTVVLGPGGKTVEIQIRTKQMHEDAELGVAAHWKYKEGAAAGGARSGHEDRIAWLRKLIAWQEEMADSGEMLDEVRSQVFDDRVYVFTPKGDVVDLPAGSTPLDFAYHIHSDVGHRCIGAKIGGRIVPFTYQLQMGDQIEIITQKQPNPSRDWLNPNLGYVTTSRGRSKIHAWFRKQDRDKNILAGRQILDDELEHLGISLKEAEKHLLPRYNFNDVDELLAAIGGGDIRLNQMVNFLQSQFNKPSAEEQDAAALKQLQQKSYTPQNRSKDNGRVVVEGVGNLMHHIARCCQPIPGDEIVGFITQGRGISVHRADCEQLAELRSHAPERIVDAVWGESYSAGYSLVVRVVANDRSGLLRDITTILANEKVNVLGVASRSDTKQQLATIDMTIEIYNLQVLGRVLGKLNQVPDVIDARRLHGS

[3] = molecular target: T1, RelA^N-terminal (purified RelA catalytic domains) (Escherichia coli); assay: ITC; RelA^N-terminal (30 µM) in the cell, NirD or NirD^E50K (300 µM) in the syringe; 25°C; 50 mM Tris-HCl pH 8.0, 500 mM NaCl, 500 mM KCl, 2 mM β-mercaptoethanol, 2% glycerol; One Set of Sites model

Molecule: RelA^N-terminal (purified RelA catalytic domains) (domain or fragment)
- Kd [1]: 550 nM

B1: NirD (purified, untagged) (natural protein)
chain: MSQWKDICKIDDILPETGVCALLGDEQVAIFRPYHSDQVFAISNIDPFFESSVLSRGLIAEHQGELWVASPLKKQRFRLSDGLCMEDEQFSVKHYEARVKDGVVQLRG
modifications: biotinylated with EZ-Link NHS-PEG4-Biotin for the biolayer interferometry only
- in vitro pppGpp synthesis by 1 µM RelA^N-terminal with 4 µM NirD: percent of GTP converted to pppGpp within 60 min (80% without NirD) [2]: 30%
- Kd [3]: 340 nM
- dH [3]: -3.63 kcal/mol
